# Test results from US20110300113A1, “Death Receptor CD95 Controls Neurogenesis of Adult Neural Stem Cells in Vivo and in Vitro” (DEUTSCHES KREBSFORSCHUNGSZENTRUM, priority 2006, published 2011).
# T1: CD95 (Mus musculus, UniProt P25446)
# T1 construct: pp60 and p85 association to CD95 increased at 1 minutes and 5 minutes after stimulation of NSCs with 1 U CD95L-T4; endogenous in cells; host or cells: mouse adult neural stem cells (C57BL6)
# T1 sequence (P25446 22-327): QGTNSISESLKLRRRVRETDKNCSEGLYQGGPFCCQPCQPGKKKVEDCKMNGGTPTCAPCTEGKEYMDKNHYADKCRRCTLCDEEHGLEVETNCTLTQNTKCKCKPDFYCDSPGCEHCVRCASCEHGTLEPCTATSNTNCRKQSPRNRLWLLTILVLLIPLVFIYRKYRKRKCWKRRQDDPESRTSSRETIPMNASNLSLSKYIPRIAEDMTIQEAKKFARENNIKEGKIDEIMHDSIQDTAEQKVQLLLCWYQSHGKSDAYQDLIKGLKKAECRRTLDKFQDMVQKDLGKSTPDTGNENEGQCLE
# How the values were obtained:
# CD95 = target: T1, CD95; assay: Immunoprecipitation of CD95 / phosphotyrosine from stimulated NSCs; assay type: cell-based; conditions: NSCs or developing neurons
# Method: Immunoprecipitation. 2×10^7 cells were either treated with 1 activation unit (5-40 ng/ml depending on the batch of CD95L-T4) or 5000 ng/ml CD95L-T4 for 1 and 5 minutes (unless otherwise indicated) at 37° C. or left untreated, washed twice in PBS plus phosphatase inhibitors (NaF, NaN3, pNPP, NaPPi, β-Glycerolphosphate, 10 mM each and 2 mM orthovanadate), and subsequently lysed in buffer A (20 mM Tris/HCl, pH 7.5, 150 mM NaCl, 2 mM EDTA, 1 mM phenylmethylsulfonyl fluoride, protease inhibitor cocktail (Roche), 1% Triton X-100 (Serva, Heidelberg, Germany), 10% glycerol, and phosphatase inhibitors (NaF, NaN3, pNPP, NaPPi, 1′-Glycerolphosphate, 10 mM each and 2 mM orthovanadate) (stimulated condition) or lysed without treatment (unstimulated condition). Protein concentration was determined using BCA kit (Pierce). 1 mg of protein was immunoprecipitated overnight with either 5 μg anti-CD95 AB Jo2 or 5 μg anti-phospho tyrosine antibody (pTyr 4G10 (Upstate)) and 30 μl protein-A Sepharose. Beads were washed 5 times with 20 volumes of lysis buffer. The immunoprecipitates were mixed with 60 μl of Laemmli buffer and 30 μl were analyzed on either 15% or 7.5% SDS-PAGE. […]
# hippocampal NSCs = assay: β-III-tubulin expression in hippocampal neural progenitor cells; assay type: cell-based, mouse; conditions: neural progenitors isolated from the HC
# Method: (§1) For staining of intracellular markers, cells were harvested, fixed with 4% PFA for 10 min on ice, washed and permeabilized using 0.1% Saponin (Sigma-Aldrich) in PBS with 10% FCS (SAP). Cells were incubated with primary antibody or isotype for 30 min on ice. Cells were washed three time with SAP and incubated with secondary antibody for 30 min on ice. Cells were washed again three times with SAP and analysed. Antibodies used were: anti β-III-tubulin (Chemicon) 1:100, anti GFAP (Chemicon) 1:100 and isotype mouse IgG1 (Sigma) 1:20. Secondary antibody was goat anti-mouse PE 1:100 (Dianova). To quantify DNA fragmentation, cells detached with trypsin were centrifuged, washed and fixed with 70% ethanol at −20° C. for 1 h. Fixed cells were resuspended in a hypotonic lysis buffer (0.1% sodium citrate and 0.1% Triton X-100) containing […] of propidium iodide, incubated at 4° C. overnight. After final washings, all samples were analysed using a FACS-Calibur (Becton Dickinson) and CellQuest Software (Becton Dickinson).
# (§2) Mouse adult neural stem cell culture. NSCs were isolated as previously described^30. Briefly, 6 week old female C57BL6 mice were sacrificied and tissue from hippocampus, SVZ and spinal cord was dissected out. […]
# neural progenitor cells [1] = assay: Proliferation rate of neural progenitor cells; assay type: cell-based, mouse; conditions: compared to untreated cells; data not shown
# Method: Mouse adult neural stem cell culture. NSCs were isolated as previously described^30. Briefly, 6 week old female C57BL6 mice were sacrificied and tissue from hippocampus, SVZ and spinal cord was dissected out. The tissue was digested, washed and cultured in Neurobasal Medium (Invitrogen Karlsruhe, Germany) supplemented with B27 (Invitrogen), Penicillin-Streptomycin (Invitrogen), Glutamax (Invitrogen), Heparin (2 μg/ml) (Sigma) and the growth factors EGF (20 ng/ml) (Promocell) and bFGF (20 ng/ml) (Promocell). After 7 days in culture neurospheres were harvested by centrifugation, dissociated using trypsin (Invitrogen) and replated. Cells were passaged once to twice weekly. Cells used for experiments were passaged between 10 to 15 times. Cells were stimulated with 10 μM Retinoic Acid or 1 activation unit of CD95L-T4. One activation unit was defined as the amount of CD95L-T4 required to increase phosphorylation of GSK3β. Activation units were defined freshly for each batch of CD95L-T4 and varied from 5-40 ng/ml.
# neural progenitor cells [2] = assay: GFAP expression (glial differentiation) in neural progenitor cells; assay type: cell-based, mouse; conditions: data not shown
# Method: as §1, §2
# SVZ NSCs = assay: β-III-tubulin expression in adult SVZ neural progenitor cells (flow cytometry); assay type: cell-based, mouse; conditions: SVZ progenitors, in the presence of growth factors
# Source text: Lentiviral infections. SVZ NSCs were infected with the lentiviral vector pEIGW and pEIGW-GSK3βS9A at a multiplicity of infection (MOI) of 5. The plasmids were constructed by replacing the eGFP sequence between the EF1α promotor and the WPRE element in pWPTS-eGFP with the IRES-eGFP cassette form pIRES2-eGFP (Clontech, Germany). The recombinant lentiviral vector pEIGW-GSK3βS9A was constructed using pcDNA3 HA-GSK3βS9A. This vector encodes a constitutively active GSK3β mutant containing a serine-to-alanine substitution at residue 9 (GSK3βS9A). Expression of all transgenes was confirmed in infected cells by FACS analysis of GFP expression. The percentage of infected cells was 70-90%.
# siRNA. […] 48 h later pp60 src knockdown was assessed by Western Blot. At the same time, cells were stimulated with CD95L-T4 and analysed after 48 h for β-III-tubulin positive cells.
# For staining of intracellular markers, cells were harvested, fixed with 4% PFA for 10 min on ice, washed and permeabilized using 0.1% Saponin (Sigma-Aldrich) in PBS with 10% FCS (SAP). […] Cells were washed again three times with SAP and analysed. […] To quantify DNA fragmentation, cells detached with trypsin were centrifuged, washed and fixed with 70% ethanol at −20° C. for 1 h. […] After final washings, all samples were analysed using a FACS-Calibur (Becton Dickinson) and CellQuest Software (Becton Dickinson). […]
molecule,measurement,setting,value
"CD95L: the ligand for CD95 (APO-1/Fas) (protein, listed as Homo sapiens, CHAIN (1)..(281) This feature is the amino acid sequence for CD95L protein. CD95L is a ligand for CD95. CD95 is APO-1/Fas and a member of the tumor necrosis factor receptor superfamily.) MQQPFNYPYPQIYWVDSSASSPWAPPGTVLPCPTSVPRRPGQRRPPPPPPPPPLPPPPPPPPLPPLPLPPLKKRGNHSTGLCLLVMFFMVLVALVGLGLGMFQLFHLQKELAELRESTSQMHTASSLEKQIGHPSPPPEKKELRKVAHLTGKSNSRSMPLEWEDTYGIVLLSGVKYKKGGLVINETGLYFVYSKVYFRGQSCNNLPLSHKVYMRNSKYPQDLVMMEGKMMSYCTTGQMWARSSYLGAVFNLTSADHLYVNVSELSLVNFEESQTFFGLYKL",FADD recruitment to CD95,CD95,did not induce efficient recruitment of the adaptor molecule FADD
same,β-III-tubulin expression,hippocampal NSCs,increase in β-III-tubulin expression
same,proliferation rate,neural progenitor cells [1],did not lead to significant changes in the proliferation rate
same,GFAP expression,neural progenitor cells [2],did not change GFAP expression
same,β-III-tubulin expression,SVZ NSCs,greatly increased β-III-tubulin expression
